From article PMC4589789, “Anti-interleukin-6 therapy through application of a monogenic protein inhibitor via gene delivery” (Scientific Reports, 2015) come the findings set out here.

Data set [1] deals with murine IL-6 (mouse) (UniProt P08505).
For data set [2] the target is unchanged. This is another data set of the same source.
Data set [3] deals with the molecule itself. In words: SDS-PAGE under non-reducing and reducing conditions; purified mIL-6-RFP-Fc on 7.5% SDS/PAGE, Coomassie staining and Western blotting; disulfide-linked dimer versus monomer. On the technique in general: In western blotting, separated proteins are transferred to a membrane and probed.

Sequence of murine IL-6 (mouse) (P08505 25-211): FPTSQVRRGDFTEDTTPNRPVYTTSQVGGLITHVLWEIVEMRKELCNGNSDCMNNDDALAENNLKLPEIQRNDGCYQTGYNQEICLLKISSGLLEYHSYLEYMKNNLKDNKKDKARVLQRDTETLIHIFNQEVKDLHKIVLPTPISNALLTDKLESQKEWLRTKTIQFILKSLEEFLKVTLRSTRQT

B1: mIL-6-RFP-Fc (murine IL-6 receptor fusion protein with engineered mIgG2a Fc-fragment and 3V5-3HA tag) (Fc fusion)
chain: QLLEPCGYIYPEFPVVQRGSNFTAICVLKEACLQHYYVNASYIVWKTNHAAVPREQVTVINRTTSSVTFTDVVLPSVQLTCNILSFGQIEQNVYGVTMLSGFPPDKPTNLTCIVNEGKNMLCQWDPGRETYLETNYTLKSEWATEKFPDCQSKHGTSCMVSYMPTYYVNIEVWVEAENALGKVSSESINFDPVDKVKPTPPYNLSVTNSEELSSILKLSWVSSGLGGLLDLKSDIQYRTKDASTWIQVPLEDTMSPRTSFTVQDLKPFTEYVFRIRSIKDSGKGYWSDWSEEASGTTYEDLVLGSCRALEVANGTVTSLPGATVTLICPGKEAAGNVTIHWVYSGSQNREWTTTGNTLVLRDVQLSDTGDYLCSLNDHLVGTVPLLVDVPPEEPKLSCFRKNPLVNAICEWRPSSTPSPTTKAVLFAKKINTTNGKSDFQVPCQYSQQLKSFSCQVEILEGDKVYHIVSLCVANSVGSKSSHNEAFHSLKMVQPDPPANLVVSAIPGRPRWLKVSWQHPETWDPSYYLLQFQLRYRPVWSKEFTVLLLPVAQYQCVIHDALRGVKHVVQVRGKEELDLGQWSEWSPEVTGTPWIPRGPTIKPCPPCKCPAPNLEGGPSVFIFPPKIKDVLMISLSPIVTCVVVDVSEDDPDVQISWFVNNVEVHTAQTQTHREDYNSTLRVVSALPIQHQDWMSGKAFACAVNNKDLPAPIERTISKPKGSVRAPQVYVLPPPEEEMTKKQVTLTCMVTDFMPEDIYVEWTNNGKTELNYKNTEPVLDSDGSYFMYSKLRVEKKNWVERNSYSCSVVHEGLHNHHTTKSFSRTPGK
The stoichiometry N is a count of units in the complex or per binding partner. Turning to B1, in the data set with murine IL-6 (mouse) [1], the IC50 of inhibition of IL-6 (37 pM)-dependent proliferation of Ba/F3-mgp130/mIL-6Rα cells, serial 2-fold dilutions from 3.9 nM, XTT assay after 60 h amounted to 3.3e-05 μM. Further, in the data set with murine IL-6 (mouse) [2], the attenuation of IL-6 (100 ng i.v.)-induced ERK1/2 phosphorylation in mouse kidney after pretreatment with mIL-6-RFP-Fc i.p. for 45 min (4, 12 or 40 μg; value for 40 μg, 70× molar excess) is 50%; the attenuation of IL-6 (100 ng i.v.)-induced ERK1/2 phosphorylation in mouse liver after pretreatment with mIL-6-RFP-Fc i.p. for 45 min (4, 12 or 40 μg; value for 40 μg, 70× molar excess) was 63%; the attenuation of IL-6 (100 ng i.v.)-induced STAT3 phosphorylation in mouse kidney after pretreatment with mIL-6-RFP-Fc i.p. for 45 min (4, 12 or 40 μg; value for 40 μg, 70× molar excess) amounted to 80%; the attenuation of IL-6 (100 ng i.v.)-induced STAT3 phosphorylation in mouse liver after pretreatment with mIL-6-RFP-Fc i.p. for 45 min (4, 12 or 40 μg; value for 40 μg, 70× molar excess) was 12%. In addition, the “stoichiometry N” value in data set [3] was determined as 2.
